B3: S. cerevisiae regulatory subunit primase 2 (Pri2) (natural protein, UniProt P20457 1-528, looked up)
chain: MFRQSKRRIASRKNFSSYDDIVKSELDVGNTNAANQIILSSSSSEEEKKLYARLYESKLSFYDLPPQGEITLEQFEIWAIDRLKILLEIESCLSRNKSIKEIETIIKPQFQKLLPFNTESLEDRKKDYYSHFILRLCFCRSKELREKFVRAETFLFKIRFNMLTSTDQTKFVQSLDLPLLQFISNEEKAELSHQLYQTVSASLQFQLNLNEEHQRKQYFQQEKFIKLPFENVIELVGNRLVFLKDGYAYLPQFQQLNLLSNEFASKLNQELIKTYQYLPRLNEDDRLLPILNHLSSGYTIADFNQQKANQFSENVDDEINAQSVWSEEISSNYPLCIKNLMEGLKKNHHLRYYGRQQLSLFLKGIGLSADEALKFWSEAFTRNGNMTMEKFNKEYRYSFRHNYGLEGNRINYKPWDCHTILSKPRPGRGDYHGCPFRDWSHERLSAELRSMKLTQAQIISVLDSCQKGEYTIACTKVFEMTHNSASADLEIGEQTHIAHPNLYFERSRQLQKKQQKLEKEKLFNNGNH
notes: DNA primase large (regulatory) subunit Pri2, S. cerevisiae (Pri2-NTD, 20-residue linker, Pri2-CTD with a 4Fe-4S cluster); intact complex without truncations; also called p58; PriL

Legend:
[1] = biological target: T1, S. cerevisiae DNA polymerase catalytic subunit Pol1 (S. cerevisiae, UniProt P13382 1-1468); assay: cryo-EM structure; purified yeast Pol α-primase alone (apo state, conformers I and II, 3.7 and 3.8 Å); ~1 mg/ml; 50 mM HEPES pH 7.5, 50 mM KGlu, 200 mM KAcetate, 1 mM DTT, 4 mM MgCl2; conditions: both partners purified
T1 construct: DNA polymerase alpha catalytic subunit Pol1, S. cerevisiae, aa 1-1468 (Pol1-NTD aa 1-348, Pol1-core aa 349-1259, Pol1-CTD aa 1260-1468); intact complex without truncations; also called DNA polymerase 1; p180
T1 sequence (looked up): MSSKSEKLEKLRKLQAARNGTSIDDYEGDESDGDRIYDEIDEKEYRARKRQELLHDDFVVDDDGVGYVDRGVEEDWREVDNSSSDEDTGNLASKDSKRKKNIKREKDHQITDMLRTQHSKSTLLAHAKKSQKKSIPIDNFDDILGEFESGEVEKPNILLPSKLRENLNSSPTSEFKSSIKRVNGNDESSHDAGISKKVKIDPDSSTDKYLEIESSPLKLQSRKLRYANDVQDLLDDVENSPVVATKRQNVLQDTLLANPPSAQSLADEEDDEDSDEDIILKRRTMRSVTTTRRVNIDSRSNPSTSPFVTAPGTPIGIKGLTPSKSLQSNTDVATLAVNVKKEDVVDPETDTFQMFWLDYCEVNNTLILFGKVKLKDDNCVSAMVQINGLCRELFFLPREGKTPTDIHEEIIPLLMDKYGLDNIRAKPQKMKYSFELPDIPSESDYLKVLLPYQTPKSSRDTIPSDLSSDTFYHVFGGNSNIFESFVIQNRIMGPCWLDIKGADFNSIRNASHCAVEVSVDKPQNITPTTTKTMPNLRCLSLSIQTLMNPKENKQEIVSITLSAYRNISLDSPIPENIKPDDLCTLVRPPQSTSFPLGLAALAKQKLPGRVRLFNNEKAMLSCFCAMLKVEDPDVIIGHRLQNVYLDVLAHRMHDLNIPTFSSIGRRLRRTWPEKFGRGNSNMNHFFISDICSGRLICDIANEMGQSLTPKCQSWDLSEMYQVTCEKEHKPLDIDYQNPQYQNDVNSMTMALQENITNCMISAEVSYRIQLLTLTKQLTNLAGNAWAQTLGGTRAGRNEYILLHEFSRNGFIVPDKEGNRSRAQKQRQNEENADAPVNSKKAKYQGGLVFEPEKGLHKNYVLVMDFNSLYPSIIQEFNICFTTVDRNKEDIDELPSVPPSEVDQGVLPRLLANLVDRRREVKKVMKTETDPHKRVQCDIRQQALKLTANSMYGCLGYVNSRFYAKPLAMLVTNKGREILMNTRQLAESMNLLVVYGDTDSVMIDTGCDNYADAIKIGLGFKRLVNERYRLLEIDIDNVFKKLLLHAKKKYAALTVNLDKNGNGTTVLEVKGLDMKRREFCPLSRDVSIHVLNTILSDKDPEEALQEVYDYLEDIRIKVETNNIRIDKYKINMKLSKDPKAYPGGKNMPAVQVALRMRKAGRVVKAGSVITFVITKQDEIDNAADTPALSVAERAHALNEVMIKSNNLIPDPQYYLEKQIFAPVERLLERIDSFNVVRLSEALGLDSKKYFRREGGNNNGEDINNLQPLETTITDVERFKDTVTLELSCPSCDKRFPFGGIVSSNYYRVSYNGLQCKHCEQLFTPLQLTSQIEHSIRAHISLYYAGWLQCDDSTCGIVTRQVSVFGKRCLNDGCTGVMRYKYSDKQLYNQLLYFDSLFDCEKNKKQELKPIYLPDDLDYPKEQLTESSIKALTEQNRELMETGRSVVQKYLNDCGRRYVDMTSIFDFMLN

[2] = biological target: B3; assay: as above; conditions: both partners purified

B1: S. cerevisiae catalytic primase 1 (Pri1) (natural protein, UniProt P10363 1-409, looked up)
chain: MTNSVKTNGPSSSDMEYYYKSLYPFKHIFNWLNHSPKPSRDMINREFAMAFRSGAYKRYNSFNSVQDFKAQIEKANPDRFEIGAIYNKPPRERDTLLKSELKALEKELVFDIDMDDYDAFRTCCSGAQVCSKCWKFISLAMKITNTALREDFGYKDFIWVFSGRRGAHCWVSDKRARALTDVQRRNVLDYVNVIRDRNTDKRLALKRPYHPHLARSLEQLKPFFVSIMLEEQNPWEDDQHAIQTLLPALYDKQLIDSLKKYWLDNPRRSSKEKWNDIDQIATSLFKGPKQDSHIIKLRECKEDLVLMTLYPKLDVEVTKQTIHLLKAPFCIHPATGNVCVPIDESFAPEKAPKLIDLQTEMEKNNDVSLTALQPFINQFQAYVSSLLKNELGSVKREREDDDEPASLDF
notes: DNA primase small (catalytic) subunit Pri1, S. cerevisiae; intact complex without truncations; also called p49; PriS
binding result [1]: binds
binding result [2]: binds

B2: S. cerevisiae polymerase accessory subunit Pol12 (natural protein, UniProt P38121 1-705, looked up)
chain: MSGSIDVITHFGPDADKPEIITALENLTKLHALSVEDLYIKWEQFSNQRRQTHTDLTSKNIDEFKQFLQLQMEKRANQISSSSKVNTSTKKPVIKKSLNSSPLFGLSIPKTPTLKKRKLHGPFSLSDSKQTYNVGSEAETNEKGNSSLKLEFTPGMAEDAVGDSAPLSHAKSSDAKTPGSSTFQTPTTNTPTTSRQNVPAGEILDSLNPENIEISSGNPNVGLLSTEEPSYNQVKVEPFYDAKKYKFRTMRQNLQEASDVLDDQIESFTKIIQNHYKLSPNDFADPTIQSQSEIYAVGRIVPDSPTYDKFLNPESLSLETSRMGGVGRRVRLDLSQVNELSFFLGQIVAFKGKNANGDYFTVNSILPLPYPNSPVSTSQELQEFQANLEGSSLKVIVTCGPYFANDNFSLELLQEFIDSINNEVKPHVLIMFGPFIDITHPLIASGKLPNFPQFKTQPKTLDELFLKLFTPILKTISPHIQTVLIPSTKDAISNHAAYPQASLIRKALQLPKRNFKCMANPSSFQINEIYFGCSNVDTFKDLKEVIKGGTTSSRYRLDRVSEHILQQRRYYPIFPGSIRTRIKPKDVSTKKETNDMESKEEKVYEHISGADLDVSYLGLTEFVGGFSPDIMIIPSELQHFARVVQNVVVINPGRFIRATGNRGSYAQITVQCPDLEDGKLTLVEGEEPVYLHNVWKRARVDLIAS
notes: intact complex without truncations; also called p70; B-subunit
binding result [1]: binds

B3
binding result [1]: binds
